From patent US20170368119A1, “METHODS AND COMPOSITIONS FOR TREATING C-MET ASSOCIATED CANCERS” (YEASTERN BIOTECH CO., LTD, priority 2014, published 2017)

How the values were obtained:
[1] = test system: HCC372; assay: wound healing migration assay, HCC372; format: cell-based, human; details: JNJ 26.5 nM, 48 hours
Protocol: The HCC cells were cultivated on 24-well plates accompanied with a wound healing culture insert until confluence followed by serum starvation of the cells for 24 hours and the culture insert were then removed. After appropriate treatments, pictures were taken under a phase contrast microscope at indicated times. Quantitative analysis of motility of the HCC cell lines described in Example 1 was performed by directly counting the cells migrating into the blanking area at 48 hours using Image J. Software available from the NIH website. In general, motilities of the mesenchymal HCCs were higher than those of the epithelial ones.
The most motile HCC cell lines identified in Example 2, namely HCC372 and HCC329, were employed for testing the molecular and cellular effects of FIP-gts on HCC, in comparison with those of JNJ-38877605 (abbreviated hereafter as JNJ), which is an ATP-competitive inhibitor for the catalytic activity of c-Met. In the cell proliferation assay, HCC329 and HCC372 cells were untreated or treated with FIP-gts (prepared in Example 4) at 0.5, 1.0 or 2.0 μg/ml for 72 hours. Cell numbers were counted, and the relative doubling times of the respective treated groups were determined by taking the data of the untreated group as 100%. […] Relative migration was analyzed quantitatively by taking the motility of untreated cells (Con) as 1.0. […]

[2] = test system: HCC329; assay: HCC329 tumor development and metastasis in SCID mice model; format: in vivo; details: JNJ 0.5-2.0 nmole/g mouse, intraperitoneal twice a week, 2 months
Protocol: HCC329 cells (approximately 2×10^7) suspended in 100 μl Dulbecco's Modified Eagle Medium (DMEM; Gibco, Grand Island, N.Y., USA) were directly injected into the subserosa of the middle liver lobe of the SCID mice, followed by intraperitoneal administration twice a week with DMEM as a vehicle, vehicle-containing FIP-gts (4.0-20 μg/g mouse) or JNJ (0.5-2.0 nmole/g mouse).
The mice were sacrificed 2 months after injection. Tumor mass was measured and the occurrence of intrahepatic metastasis and/or extrahepatic metastasis was recorded. Nodules with diameter of more than 0.1-0.2 cm observed on the left or right lobes were recognized as secondary tumor foci. […] Extra-hepatic metastasis was defined to be the case where the tumors appearing in organs other than liver such as in intestine. During the animal experiment, the regulations relevant to the care and use of laboratory animals were followed. This was approved by the Institutional Animal Care and Use Committee (IACUC) in Tzu Chi University (No. of consent form: 102080).

[3] = test system: HCC329; assay: wound healing migration assay, HCC329; format: cell-based, human
Protocol: The HCC cells were cultivated on 24-well plates accompanied with a wound healing culture insert until confluence followed by serum starvation of the cells for 24 hours and the culture insert were then removed. After appropriate treatments, pictures were taken under a phase contrast microscope at indicated times.
Cell numbers were counted, and the relative doubling times of the respective treated groups were determined by taking the data of the untreated group as 100%. […] Relative migration was analyzed quantitatively by taking the motility of untreated cells (Con) as 1.0.

[4] = test system: p-JNK, p-ERK, p-AKT, p-EGFR in HCC329; assay: immuno-blotting of signaling molecules, HCC329; format: cell-based, human; details: within 4 to 16 hours, data not shown
Excerpt: To investigate the molecular mechanism of FIP-gts in suppression of tumor progression of HCCs, the effects of FIP-gts on the activity and/or quantity of the critical members present in c-Met dependent signaling pathway, including c-Met, phosphorylated c-Met (p-c-Met) and downstream effectors p-JNK and p-ERK, were examined in HCCs. […] Total proteins were harvested from the cells and subjected to immuno-blotting analysis using GAPDH as a loading control. Antibodies for p-c-Met, p-JNK, p-ERK and p-paxillin (S178), GAPDH and ERK were purchased from Santa Cruz Biotechnology (California, USA). The band intensities on the blots were quantified with Image J. Software. Relative band intensity of each molecule was calculated, taking the data of untreated HCC372 or HCC329 as 1.0.

[5] = test system: c-Met, p-c-Met and p-JNK in HCC372; assay: western blotting of c-Met dependent signaling (Example 10), HCC372; format: cell-based, human; details: HCC372 (HGFR-positive)
Protocol: To investigate the molecular mechanism of FIP-gts in suppression of tumor progression of HCCs, the effects of FIP-gts on the activity and/or quantity of the critical members present in c-Met dependent signaling pathway, including c-Met, phosphorylated c-Met (p-c-Met) and downstream effectors p-JNK and p-ERK, were examined in HCCs. HCC329 and HCC372 cells were treated with FIP-gts (2 μg/ml) for 4 or 24 hours. Total proteins were harvested from the cells and subjected to immuno-blotting analysis using GAPDH as a loading control. Antibodies for p-c-Met, p-JNK, p-ERK and p-paxillin (S178), GAPDH and ERK were purchased from Santa Cruz Biotechnology (California, USA). The band intensities on the blots were quantified with Image J. Software. Relative band intensity of each molecule was calculated, taking the data of untreated HCC372 or HCC329 as 1.0. The results were shown in FIGS. 5A and 5B, in which (**) (##) and (*) (#) represent statistical significance (p<0.005 and p<0.05, respectively, n=3) between the indicated inhibitor-treated sample and untreated HCC329 or HCC372 control group.
The experiments described in Example 7 were repeated, except that FIP-gts was replaced with FIP-gmi, FIP-fve and FIP-vvo for treating HCC329 and HCC372. […] In addition, since c-Met was not substantially expressed in HCC329, the inhibitory effects of FIP-gmi, FIP-fve and FIP-vvo on HCC329 must be exerted through blockage on a c-Met independent signaling, such as EGFR-dependent signaling pathway.

[6] = test system: HCC372; assay: MTT cell viability, HCC372; format: cell-based, human; details: 48 hours
Protocol: (§1) HCC372 and HCC329 cell lines established in Example 2 were cultured in 24-well plates at 1×10^5 cells/well in Dulbecco's Modified Eagle Medium (DMEM; Sigma, St. Louis, Mo., USA) supplemented with 1% heat-inactivated fetal bovine serum (FBS; Gibco, N.Y., USA) in the presence or absence of FIP-gmi, FIP-fve and FIP-vvo prepared in Example 4 at 1, 2.5 and 5 μg/ml for 48 hours. The supernatant was removed and 25 μl per well of 2.5 mg/ml MTT (3-[4,5-dimethylthiazol-2-yl]-2,5-dipheyltetrazolium bromide; Sigma Chemical Co., St. Louis, Mo., USA) in phosphate-buffered saline (PBS) was added. The plates were incubated at 37° C. for 1 hour to allow the transformation of MTT into water-insoluble formazan crystals. Then, the supernatant was removed and dimethyl sulfoxide (DMSO) was added to all wells and mixed thoroughly to dissolve the dark blue crystals. After a few minutes at room temperature to ensure that all crystals were totally dissolved, the plates were read at 570 nm. Relative survival rate was calculated by taking the number of untreated cells (Con) as 100%. The results are shown in FIGS. 6A and 6B, where the data were representative of 4 reproducible experiments.

[7] = test system: HCC329; assay: MTT cell viability, HCC329; format: cell-based, human; details: 48 hours
Protocol: as §1

[8] = test system: HCC329; assay: transwell migration assay, HCC329; format: cell-based, human; details: FIP-fve 10 μg/ml, 48 hours
Protocol: (§2) Further, the effects of the three FIPs on migration of both HCC cells were examined. HCC372 and HCC329 cells were seeded on a 24-well transwell migration insert (Nalge Nunc International Corp., Rochester, N.Y., USA) in a complete medium for 24 hours. After treatment with FIP-gmi (3 μg/ml), FIP-fve (10 μg/ml) and FIP-vvo (2.5 μg/ml) for 48 hours, cells that had migrated to the underside of the insert membrane were stained with 0.3% crystal violet. The cells on the topside of the insert membrane were rubbed with a cotton swab. The migrated cells on the underside were imaged using phase contrast microscopy with 200× magnification.

[9] = test system: HCC372; assay: transwell migration assay, HCC372; format: cell-based, human; details: FIP-fve 10 μg/ml, 48 hours
Protocol: as §2

Row | Molecule | suppression of cell migration [1] [%] | secondary tumors on liver lobes (intra-hepatic metastasis) [2] | tumor progression of HCC329 [2] | suppression of cell migration ([3]; JNJ, 48 hours) [%] | reduction of the level of p-JNK by EGFR inhibitors [4] [%] | suppression of cell migration by EGFR inhibitors ([3]; wound healing assays, data not shown) [%] | effect on c-Met [5] | effect on p-JNK [5] | effect on p-c-Met [5] | suppression of growth (MTT) ([6]; 2.5 μg/ml) [%] | suppression of growth (MTT) ([6]; 5 μg/ml) [%] | suppression of growth (MTT) ([7]; 2.5 μg/ml) [%] | suppression of growth (MTT) ([7]; 5 μg/ml) [%] | suppression of cell migration (transwell) [8] | suppression of cell migration (transwell) [9]
1 | Cn1cc(-c2ccc3nnc(C(F)(F)c4ccc5ncccc5c4)n3n2)cn1 [JNJ-38877605, reference compound] | 50 | secondary tumors were observed on left and right liver lobes | not prominent | 15 |  |  |  |  |  |  |  |  |  |  | 
2 | Cc1cc(C)c(/C=C2\C(=O)Nc3ccccc32)[nH]1 [SU5416, reference compound] |  |  |  |  | 30 | 80 |  |  |  |  |  |  |  |  | 
3 | FIP-gmi: fungal immunomodulatory protein from Ganoderma microsporum, SEQ ID NO: 6 (protein, listed as Ganoderma microsporum) MSDTALIFTLAWNVKQLAFDYTPNWGRGRPSSFIDTVTFPTVLTDKAYTYRVVVSGKDLGVRPSYAVESDGSQKINFLEYNSGYGIADTNTIQVYVIDPDTGNNFIVAQWN |  |  |  |  |  |  | significantly suppressed | significantly suppressed | significantly suppressed | 23 | 96 | 23 | 94 |  | 
4 | FIP-fve: fungal immunomodulatory protein from Flammulina veltipes, SEQ ID NO: 2 (protein, Flammulina Velutipes) SATSLTFQLAYLVKKIDFDYTPNWGRGTPSSYIDNLTFPKVLTDKKYSYRVVVNGSDLGVESNFAVTPSGGQTINFLQYNKGYGVADTKTIQVFVVIPDTGNSEEYIIAEWKKT |  |  |  |  |  |  | significantly suppressed | significantly suppressed | significantly suppressed | 13 | 13 | 18 | 22 | marginally suppressed | marginally suppressed
5 | FIP-vvo: fungal immunomodulatory protein from Volvariella volvacea, SEQ ID NO: 3 (protein, listed as Volvariella volvacea) STDLTQLLFFIAYNLQKVNFDYTPQWQRGNPSSYIDAVVFPRVLTNKAYQYRVVTGDKDLGIKPSYSVQADGSQKVNLLEYNGGYGVADTTTIKIYVVDPSNGNQYLIAQWK |  |  |  |  |  |  | significantly suppressed | significantly suppressed | significantly suppressed | 48 | 96 | 54 | 95 |  | 
